Measurements reported in PMC2811003 (Nucleic Acids Research, 2009).

Assays:
PriB wild type = target: T1, PriB wild type (Neisseria gonorrhoeae FA1090, UniProt Q5F924 1-100); experiment: fluorescence anisotropy
T1 sequence: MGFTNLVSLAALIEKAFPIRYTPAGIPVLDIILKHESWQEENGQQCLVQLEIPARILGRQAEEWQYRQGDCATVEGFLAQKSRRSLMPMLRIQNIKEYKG

PriB E41A = target: T2, PriB E41A (Neisseria gonorrhoeae FA1090, UniProt Q5F924 1-100, E41A); experiment: fluorescence anisotropy
T2 sequence: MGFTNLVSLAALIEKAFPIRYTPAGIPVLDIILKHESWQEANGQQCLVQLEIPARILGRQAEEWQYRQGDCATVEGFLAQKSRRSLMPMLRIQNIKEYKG

PriB Y21A = target: T3, PriB Y21A (Neisseria gonorrhoeae FA1090, UniProt Q5F924 1-100, Y21A); experiment: fluorescence anisotropy
T3 sequence: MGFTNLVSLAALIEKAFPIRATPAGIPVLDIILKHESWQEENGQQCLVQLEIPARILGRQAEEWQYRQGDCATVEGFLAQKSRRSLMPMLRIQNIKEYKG

[1] = target: T4, His-tagged Neisseria gonorrhoeae PriA (Neisseria gonorrhoeae, UniProt Q5F6V8 1-729); experiment: pull-down
T4 sequence (looked up): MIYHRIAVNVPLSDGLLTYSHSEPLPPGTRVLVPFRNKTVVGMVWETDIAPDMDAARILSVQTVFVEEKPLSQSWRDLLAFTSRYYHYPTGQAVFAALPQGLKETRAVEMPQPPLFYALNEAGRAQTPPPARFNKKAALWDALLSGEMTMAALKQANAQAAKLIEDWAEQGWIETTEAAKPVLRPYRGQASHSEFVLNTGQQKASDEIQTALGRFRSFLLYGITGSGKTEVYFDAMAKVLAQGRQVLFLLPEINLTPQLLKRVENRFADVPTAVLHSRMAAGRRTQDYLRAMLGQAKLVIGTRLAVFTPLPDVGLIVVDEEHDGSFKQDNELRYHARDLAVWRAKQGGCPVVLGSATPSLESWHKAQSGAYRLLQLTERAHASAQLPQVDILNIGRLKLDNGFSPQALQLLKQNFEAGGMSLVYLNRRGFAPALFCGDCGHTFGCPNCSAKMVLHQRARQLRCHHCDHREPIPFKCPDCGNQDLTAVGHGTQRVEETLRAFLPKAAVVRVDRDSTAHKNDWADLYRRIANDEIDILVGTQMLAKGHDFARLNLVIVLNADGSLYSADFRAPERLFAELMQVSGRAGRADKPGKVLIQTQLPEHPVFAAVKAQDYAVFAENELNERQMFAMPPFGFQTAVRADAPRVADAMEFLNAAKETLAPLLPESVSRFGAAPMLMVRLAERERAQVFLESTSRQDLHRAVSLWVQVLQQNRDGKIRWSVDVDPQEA

crystal structure = target: the molecule itself; experiment: crystal structure
[2] = target: T5, Neisseria gonorrhoeae PriA (Neisseria gonorrhoeae, UniProt Q5F6V8 1-729); experiment: fluorescence polarisation
T5 sequence: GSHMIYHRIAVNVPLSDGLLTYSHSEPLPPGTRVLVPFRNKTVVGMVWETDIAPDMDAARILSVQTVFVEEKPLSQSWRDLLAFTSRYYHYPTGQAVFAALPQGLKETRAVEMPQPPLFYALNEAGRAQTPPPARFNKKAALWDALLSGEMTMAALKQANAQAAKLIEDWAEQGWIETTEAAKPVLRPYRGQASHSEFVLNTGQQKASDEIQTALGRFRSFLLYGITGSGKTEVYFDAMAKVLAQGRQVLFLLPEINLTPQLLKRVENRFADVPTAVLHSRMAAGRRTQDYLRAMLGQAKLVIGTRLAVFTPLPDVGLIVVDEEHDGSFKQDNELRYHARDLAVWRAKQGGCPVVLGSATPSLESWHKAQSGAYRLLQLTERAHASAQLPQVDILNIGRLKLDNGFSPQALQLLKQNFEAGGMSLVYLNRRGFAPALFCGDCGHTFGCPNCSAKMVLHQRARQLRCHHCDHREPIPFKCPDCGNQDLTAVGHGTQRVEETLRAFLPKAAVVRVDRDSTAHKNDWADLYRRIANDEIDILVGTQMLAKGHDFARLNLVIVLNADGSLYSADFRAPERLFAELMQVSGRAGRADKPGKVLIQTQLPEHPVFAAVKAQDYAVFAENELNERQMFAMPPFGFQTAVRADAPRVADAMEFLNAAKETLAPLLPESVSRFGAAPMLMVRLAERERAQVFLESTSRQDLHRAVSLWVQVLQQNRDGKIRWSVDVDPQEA

## AAGCACAATTACCCACGC (ssDNA) [18-base fluoro-ssDNA]
PriB wild type
  Kd: 662 ± 37 nM

## GCCGTGATCACCAATGCAGATTGACGAACCTTTGCC (ssDNA) [36-base fluoro-ssDNA]
PriB wild type
  Kd: 475 ± 20 nM
PriB E41A
  Kd: 139 ± 26 nM
PriB Y21A
  Kd: 641 ± 41 nM

## GCCGTGATCACCAATGCAGATTGACGAACCTTTGCTCCAGTAACC (ssDNA) [45-base fluoro-ssDNA]
PriB wild type
  Kd: 1020 ± 34 nM

B1: Neisseria gonorrhoeae PriB (natural protein)
chain: GSHMGFTNLVSLAALIEKAFPIRYTPAGIPVLDIILKHESWQEENGQQCLVQLEIPARILGRQAEEWQYRQGDCATVEGFLAQKSRRSLMPMLRIQNIKEYKG
[1]
  binding result: binds
Crystal structure
  stoichiometry N: 2

B2: FITC-labeled Neisseria gonorrhoeae PriB (natural protein)
chain: GSHMGFTNLVSLAALIEKAFPIRYTPAGIPVLDIILKHESWQEENGQQCLVQLEIPARILGRQAEEWQYRQGDCATVEGFLAQKSRRSLMPMLRIQNIKEYKG
modifications: FITC (fluorescein isothiocyanate) label, 0.34 FITC per PriB dimer; labeled residue not stated
[2]
  Kd: 137 nM
